Measurements taken from patent publication US20240207418A1, “LINKERS, DRUG LINKERS AND CONJUGATES THEREOF AND METHODS OF USING THE SAME” (ProfoundBio US Co., priority 2021, published 2024).

Assays:
[1] = target: T1, human FOLR1 protein (Homo sapiens, UniProt P15328); test: ELISA binding to human FOLR1 protein
T1 construct: His tag; purchased ACRO FO1-H52H1
Experimental: (§1) The ability of the antibodies to bind to human FOLR1 protein or to cross binding to cynomolgus FOLR1 protein was tested by standard ELISA. Briefly, the human FOLR1 (ACRO-FO1-H52H1) or cynomolgus FOLR1 protein (ACRO, F01-C52H8) with a His tag was diluted to 5 μg/ml with a carbonic acid coating solution at pH 9.6 and 100 μL antigen was coated in each well of 96-well microtiter plate at 4° C. overnight. The liquid in the wells was discarded and the wells were washed three times with PBST. The wells were then blocked with 4% skim milk powder-PBS (Sigma, D5652-1 L), using 300 μL/well and the plates incubated in 37° C. for 1 hour. The liquid in the wells was discarded, and the well were washed three times with PBS. Samples were added using 100 μL/well; PBS was added in the control group. The plates were incubated at 37° C. for 1 hour. The liquid in the wells was discarded and the wells were washed three times with PBST. HRP-goat anti-human IgG (Sigma, 118885-2ML) was added (with 1:5000 dilution, 100 μL/well) and the plates were incubated in 37° C. for 1 hour. Then the liquid in the wells was discarded, and the wells were washed five times with PBST. A TMB solution was added using 100 μL/well. 2M H2SO4 was added to each well using 50 μL to terminate the reaction after […]. The A450 values were read using a microplate reader.

[2] = test system: cynomolgus FOLR1 protein; test: ELISA cross binding to cynomolgus FOLR1 protein
Experimental: as §1

T1 sequence (P15328 25-234): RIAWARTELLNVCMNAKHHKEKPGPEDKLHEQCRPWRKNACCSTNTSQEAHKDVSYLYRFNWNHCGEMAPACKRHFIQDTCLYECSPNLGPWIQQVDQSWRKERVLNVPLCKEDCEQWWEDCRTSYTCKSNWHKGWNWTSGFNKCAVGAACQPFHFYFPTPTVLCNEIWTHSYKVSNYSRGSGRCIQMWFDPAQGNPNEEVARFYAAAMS

OD450, Target: Human FOLR1 Protein His Tag, Diluted 1x ([1]; supernatant diluted 1x): 0.811 OD450
OD450, Target: Human FOLR1 Protein His Tag, Diluted 5x ([1]; supernatant diluted 5x): 0.382 OD450
OD450, Target: Human FOLR1 Protein His Tag, Diluted 25x ([1]; supernatant diluted 25x): 0.163 OD450
Target binding, coating with Human FOLR1 Protein ([1]; transfection supernatant, ELISA): 2.3860 OD450
OD450, Target: Cynomolgus/Rhesus macaque FOLR1, Protein, His Tag, Diluted 1x ([2]; supernatant diluted 1x): 1.354 OD450
OD450, Target: Cynomolgus/Rhesus macaque FOLR1, Protein, His Tag, Diluted 5x ([2]; supernatant diluted 5x): 1.111 OD450
OD450, Target: Cynomolgus/Rhesus macaque FOLR1, Protein, His Tag, Diluted 25x ([2]; supernatant diluted 25x): 0.924 OD450
B1: F40: anti-FOLR1 antibody clone: "Clone F40 has a different HCDRs and LCDRs, and with different HFR and LFR" (antibody, V domains shown)
VH: EVQLLESGGGVVQPGRSLRLSCAASGFTFSSYAMHWVRQAPGKGLEWVAVISYDGSNKYYADSVKGRFIISRDNSKNTVYLQMNSLRAEDTAVYYCARPTYVFTYTGSSFDYWGQGTQVTVSS
VL: DIQVTQSPSSLSASLGDTVSITCRASRGLTDSVAWYQQKPGQAPKLLIYAASTLQSGVPSRFGGSGSGSYFTLTITSLQPEDVATYYCQNYKSAPWTFGQGTKVEIK
